Results taken from patent US20250092426, “CAS ENDONUCLEASES AND RELATED METHODS” (Flagship Pioneering Innovations VII, LLC, published 2025).

Biological target: T1, CasEnd-28 (synthetic construct)
T1 chain: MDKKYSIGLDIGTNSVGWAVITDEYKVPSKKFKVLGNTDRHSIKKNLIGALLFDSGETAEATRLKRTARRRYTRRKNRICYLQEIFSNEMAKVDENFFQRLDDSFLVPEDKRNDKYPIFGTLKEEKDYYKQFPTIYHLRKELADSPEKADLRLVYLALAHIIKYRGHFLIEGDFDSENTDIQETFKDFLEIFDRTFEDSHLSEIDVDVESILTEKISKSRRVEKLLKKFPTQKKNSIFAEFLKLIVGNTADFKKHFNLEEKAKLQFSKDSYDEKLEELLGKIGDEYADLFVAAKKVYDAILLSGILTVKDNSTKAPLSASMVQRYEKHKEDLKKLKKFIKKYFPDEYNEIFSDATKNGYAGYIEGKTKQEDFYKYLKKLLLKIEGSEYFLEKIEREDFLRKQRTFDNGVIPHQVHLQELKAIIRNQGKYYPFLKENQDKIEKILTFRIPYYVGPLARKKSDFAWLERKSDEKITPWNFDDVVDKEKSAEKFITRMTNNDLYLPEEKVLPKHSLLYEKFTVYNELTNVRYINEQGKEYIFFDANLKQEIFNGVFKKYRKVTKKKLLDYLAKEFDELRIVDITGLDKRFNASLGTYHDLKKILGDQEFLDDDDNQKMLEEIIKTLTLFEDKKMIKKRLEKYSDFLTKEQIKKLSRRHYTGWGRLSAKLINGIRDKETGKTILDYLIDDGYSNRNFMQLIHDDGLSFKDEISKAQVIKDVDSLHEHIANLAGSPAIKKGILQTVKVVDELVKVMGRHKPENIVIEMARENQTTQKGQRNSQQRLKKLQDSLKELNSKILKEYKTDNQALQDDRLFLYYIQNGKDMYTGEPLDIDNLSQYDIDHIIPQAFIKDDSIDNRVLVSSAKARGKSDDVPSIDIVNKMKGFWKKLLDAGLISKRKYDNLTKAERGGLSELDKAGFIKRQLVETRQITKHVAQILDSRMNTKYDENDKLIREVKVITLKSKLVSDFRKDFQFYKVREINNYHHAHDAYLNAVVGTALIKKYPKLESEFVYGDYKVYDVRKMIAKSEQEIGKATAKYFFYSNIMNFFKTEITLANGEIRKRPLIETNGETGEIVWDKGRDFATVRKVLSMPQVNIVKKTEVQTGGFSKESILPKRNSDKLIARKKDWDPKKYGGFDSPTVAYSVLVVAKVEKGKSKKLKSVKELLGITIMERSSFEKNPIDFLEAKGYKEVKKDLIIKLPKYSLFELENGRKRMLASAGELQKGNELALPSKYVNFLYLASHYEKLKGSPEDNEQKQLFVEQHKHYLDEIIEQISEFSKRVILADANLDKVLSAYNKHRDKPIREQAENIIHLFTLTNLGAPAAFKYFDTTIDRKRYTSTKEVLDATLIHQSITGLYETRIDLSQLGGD
Test: cell_activity; +++; K562, second nick guide SEQ 380; PAM not stated
Procedure, shortened: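 K562 cells (250,000) nucleofected with plasmids for the reverse transcriptase–Cas endonuclease fusion, template RNA introducing an SNP at endogenous HBB, and second nick guide RNA (250 ng each). Genomic DNA harvested at day 3; percent amplicons with intended edit measured by targeted amplicon sequencing.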

B1: HBB template RNA ; HBB protospacer (ssRNA ; dsDNA)
RNA: CAUGGUGCACCUGACUCCUGGUUUUAGAGCUAGAAAUAGCAAGUUAAAAUAAGGCUAGUCCGUUAUCAACUUGAAAAAGUGGCACCGAGUCGGUGCACGGCAGACUUCUCUGCCGGAGUCAGGUGC
DNA 1: CATGGTGCACCTGACTCCTG
DNA 2: CAGGAGTCAGGTGCACCATG
activity: ≥ 100 % of reference
